Experiments:
proteinase 3 [1] = target: proteinase 3 (UniProt P24158); experiment: time course of enzyme inhibition (residual activity, second order association rate constant); methylamine-treated serum A1AT and PR3, equimolar, 1 nM each, 23°C, plate wells of 150 uL; residual PR3 activity at 1-5 min with the FRET substrate Abz-VAD-norV-ADRQ-EDDnp
proteinase 3 [2] = target: proteinase 3 (UniProt P24158); experiment: time course of enzyme inhibition (residual activity, second order association rate constant); purified M or Z variant A1AT and PR3, equimolar, 1 nM each, 23°C, plate wells of 150 uL; residual PR3 activity at 1-5 min with the FRET substrate Abz-VAD-norV-ADRQ-EDDnp
[3] = target: T1, M variant alpha-1-antitrypsin (human (endogenous in serum), UniProt P01009 25-418); experiment: as above; details: both partners purified
T1 construct: alpha-1-antitrypsin (A1AT), normal M variant, human serum or bought pure protein; the assays tell them apart; also called M variant A1AT; pure M variant A1AT; source: endogenous, serum of healthy PiMM controls, treated with methylamine; also bought: Athens Research and Technology, pure
T1 sequence (P01009 25-418, change not shown): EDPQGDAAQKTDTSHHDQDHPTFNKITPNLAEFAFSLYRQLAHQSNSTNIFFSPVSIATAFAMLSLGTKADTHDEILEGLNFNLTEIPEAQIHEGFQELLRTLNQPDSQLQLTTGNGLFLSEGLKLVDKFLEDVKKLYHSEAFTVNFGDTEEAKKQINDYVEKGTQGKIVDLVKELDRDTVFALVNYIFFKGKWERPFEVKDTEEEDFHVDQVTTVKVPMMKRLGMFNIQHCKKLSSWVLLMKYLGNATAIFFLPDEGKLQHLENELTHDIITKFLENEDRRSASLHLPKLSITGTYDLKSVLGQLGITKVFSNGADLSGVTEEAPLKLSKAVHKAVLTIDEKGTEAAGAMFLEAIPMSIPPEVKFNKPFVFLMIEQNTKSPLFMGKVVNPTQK

[4] = target: T2, F variant alpha-1-antitrypsin (human (endogenous in serum), UniProt P01009 25-418, arginine at residue 223 by cysteine); experiment: time course of enzyme inhibition (residual activity, second order association rate constant); methylamine-treated serum A1AT and PR3, equimolar, 1 nM each, 23°C, plate wells of 150 uL; residual PR3 activity at 1-5 min with the FRET substrate Abz-VAD-norV-ADRQ-EDDnp; details: one partner purified
T2 construct: alpha-1-antitrypsin (A1AT), F variant, human serum; arginine at residue 223 replaced by cysteine; also called F variant A1AT; F A1AT; source: endogenous, serum of a PiFF homozygote, treated with methylamine
T2 sequence (P01009 other isoform, or with tags, fused parts or gaps with the stated changes): as the sequence (P01009 25-418, change not shown) above, with R223C counted along it

[5] = target: T1, M variant alpha-1-antitrypsin; experiment: as above; details: one partner purified

| Molecule | kon (proteinase 3 [1]) | kon (proteinase 3 [2]) | kon [3] | kon [4] | kon [5] |
| --- | --- | --- | --- | --- | --- |
| S variant alpha-1-antitrypsin (from UniProt P01009 25-418) (natural protein) | 951000 M⁻¹ s⁻¹ |  |  |  |  |
| Z variant alpha-1-antitrypsin (from UniProt P01009 25-418) (natural protein) | 1.1e+06 M⁻¹ s⁻¹ | 1.03e+06 M⁻¹ s⁻¹ |  |  |  |
| proteinase 3 (enzyme, UniProt P24158 28-248, looked up, proteinase 3 (PR3), bought pure enzyme, active site titrated; also called PR3; pure PR3; source: bought: Merck, pure) IVGGHEAQPHSRPYMASLQMRGNPGSHFCGGTLIHPSFVLTAAHCLRDIPQRLVNVVLGAHNVRTQEPTQQHFSVAQVFLNNYDAENKLNDVLLIQLSSPANLSASVATVQLPQQDQPVPHGTQCLAMGWGRVGAHDPPAQVLQELNVTVVTFFCRPHNICTFVPRRKAGICFGDSGGPLICDGIIQGIDSFVIWGCATRLFPDFFTRVALYVDWIRSTLR |  |  | 983000 M⁻¹ s⁻¹ | 1.06e+06 M⁻¹ s⁻¹ | 924000 M⁻¹ s⁻¹ |
